From article PMC7265331

Target: Cab45 (UniProt Q9BRK5)
Test: GFP-Cab45 oligomerization assay, confocal microscopy
Conditions: reference: GFP-Cab45-WT; sites S99,T131,S142,T193,S349

Cab45 (from UniProt Q9BRK5) GFP-Cab45-5pXE
other: share of oligomers with maximum intensity <500 a.u.: same; reference 55
